Experimental data taken from the supplement of paper PMC12636428.

System: Saccharomyces cerevisiae
Assay: transcriptional activation domain activity (GFP:mCherry ratio, weighted mean of sorted bins, harmonized to initial dataset scale) (arbitrary fluorescence ratio units); higher = stronger transcriptional activation
Conditions: beta-estradiol 1 µM; induction time 4 h
Method: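 53-aa protein tiles (fungal proteins plus yeast TF control tiles) fused C-terminally to a DBD-estrogen-binding domain-mCherry synthetic TF, integrated in S. cerevisiae (URA3 locus) with a GFP reporter. Cells were induced with 1 uM beta-estradiol for 4 h at 30 C, FACS-sorted into 8 bins by GFP:mCherry ratio and barcodes sequenced. Activity is the read-weighted mean bin fluorescence (GFP:mCherry), averaged over barcodes (median 12); tiles under 50 reads were discarded. New active-learning values were harmonized by linear fit onto the scale of the initial (Hummel et al.) dataset. The assay saturates at low and high signal.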

In the case of “DDAVVESFFSSSTDSTPMFEYENLEDNSKEWTSLFDNDIPVTTDDVSLADKAI”, the “transcriptional activation domain activity” value is reported as 114000.

In the case of “DDDDDDVETHSIVHSDLLNDMDSASQRASHNASGFPNFLDTSCSSSFDDHFIF”, the “transcriptional activation domain activity” value is reported as 69100.

In the case of “DDDIAMFDSLATTQPIDIAASNQQNGEIAQLWDFNVDQFNMTPSNSSGSATIS”, the “transcriptional activation domain activity” value is reported as 91100.

For “DDDKKETGAFTHQWILLAKSRASHILLCITYFYASVLAVVSVGSVNWRNVAVK”, the “transcriptional activation domain activity” value was 63000.

For “DDEADGKRRRVQRACDSCRKKKCDVRARVYLCGCSKTPRSASQLLRRARGAHG”, the “transcriptional activation domain activity” value was 42500.

With “DDEDEEQEEEEEDVDPEVRRKEELRARMAKMSGGMGMAGMFGMMPMPGAGAPP” the “transcriptional activation domain activity” value was 41500.

For “DDEEENKSAPAKKSRAKKTVKKEEDDDDNNAEEAKPAPAKKSRAKKAVKKEED”, the “transcriptional activation domain activity” value was 57900.

“DDEGSTRDRKSHKRRSRDKDDSDEEEDRKRRKRRKERERSKDKEERRSVLTGK” was tested, and the “transcriptional activation domain activity” value was 28900.

In the case of “DDEHEDRHREGRGSRGDRTRSASADSKHRSSRRDKEKHRSSRSHRDRSKEQRR”, the “transcriptional activation domain activity” value is reported as 37400.

For “DDENEGSDTEAEAPAEKPKRGRKKAAPKEGADGEEEAPAAKKAAPRGRGKKAA”, the “transcriptional activation domain activity” value was 6980.

In the case of “DDERERKRAKGDKDEECHKEPKRSARDKQEESSTTRNSRQSKKPKTAAQPEAK”, the “transcriptional activation domain activity” value is reported as 7230.

For “DDETADGERQSKREKADDDDDGEEMEIDEEEESAANRNTAVVPPAVQKPSARL”, the “transcriptional activation domain activity” value was 19200.

With “DDGESKEKRSRREKSAASEDESRKRSKSRSKSKSKTPSGNDESSNEDTSAGAD” the “transcriptional activation domain activity” value was 18600.

“DDHRSRRYRDRGRDRDQDEDAEDSHRDRRRRRRSPDEGASRRHQRESHADGDG” was tested, and the “transcriptional activation domain activity” value was 35700.

With “DDKPAEKKEAAAAPKKEEAKKEEAKPAEKKEEPKKEAATAVPKATEKKPATAA” the “transcriptional activation domain activity” value was 25900.

“DDLLVCVAQVVDICYSVFFWFPGIQFQPRPPPLPPIINLWASNILMYTILWIS” was tested, and the “transcriptional activation domain activity” value was 60700.

For “DDLQQLLEDLGNIDHSDEKLWKEITDQAMWLGNTMDPTAAAGSEIDFTDYLGP”, the “transcriptional activation domain activity” value was 144000.

With “DDNAGDGSLSSVVKVWLEGLTPSGRVEIFGRRNPPPVVRFLLLLVVSRRIGSL” the “transcriptional activation domain activity” value was 58600.

“DDPDVEESDDEPVELWVARGEDRCDACKQRNIRVCEPQWGAPRSSACKTCARK” was tested, and the “transcriptional activation domain activity” value was 31700.

“DDPGATPHDPNDPKRPRACEACRGLKVKCEPDPSNPDGPCKRCAKAGRNCVVT” was tested, and the “transcriptional activation domain activity” value was 16300.

For “DDSAASHAESKEARDGANEADTSSTGGEADSALKESNTKAERRQDKKEEEASG”, the “transcriptional activation domain activity” value was 34100.

“DDSRERRRSSRKDREKDRKERKRHRHRSDDKSEDDDDRRHRKDRKRSRPSSAA” was tested, and the “transcriptional activation domain activity” value was 22100.

With “DDTGEEEQPPPASNSSAGVATSTTVVPQQLPARYRLRAFISHKGPSVHSGHYV” the “transcriptional activation domain activity” value was 29800.

For “DEDAEGEDDPESAEPAKKRGRPPGSGKKRKPAAEKPKPQPGRGRGRPKKSEAA”, the “transcriptional activation domain activity” value was 18000.

In the case of “DEDATNENMSGPAMDVDEARNFINARLDLLKRTLHPNPIVVTAQLLKAVWAAY”, the “transcriptional activation domain activity” value is reported as 36200.

In the case of “DEDDDDDDNDDADADDEPARRPKKSKSSQKSRSKKPAAKRAKVNGTTPAAAHS”, the “transcriptional activation domain activity” value is reported as 20000.

“DEDPAKKGKKKASEPAATKVKAARGRKSKAAATEGSEAGPSKPPAKGRGKKAA” was tested, and the “transcriptional activation domain activity” value was 15800.

With “DEDRRKRRRSRSRSPDREEESSRRRRDRSRSRSKDADRKKRKRDKSEERKARK” the “transcriptional activation domain activity” value was 30900.

With “DEEDIWNYLPSSSSQQEDSSRALKKNTNSEKANIQAKNDETYLFLQDQDESAD” the “transcriptional activation domain activity” value was 46700.

“DEEEAPEEGARGRRRKGRGKGKGKQGGGGEEEGGDGEEVEGEGEAEGEQENAG” was tested, and the “transcriptional activation domain activity” value was 24000.

For “DEEGRKRGGEREKGQHAGDERRRRRRRGEREGRERQKEGRRGPGRQSKDGKEG”, the “transcriptional activation domain activity” value was 49500.

For “DEEGRRALPRRCVLVMGSEREGVPGPVLAECDGCVEVRQVGVTRSLNVQTAAA”, the “transcriptional activation domain activity” value was 28700.

In the case of “DEEQDRSHRHRRSRSASPRRHKSGNEARERDRHGDDHSRRHRRRRSHERSHRH”, the “transcriptional activation domain activity” value is reported as 48700.

With “DEGESAAPADSAAQAQHLDATKKGHYKLSSFISHKGPSVHCGHYVSHIKKGDQ” the “transcriptional activation domain activity” value was 51800.

In the case of “DELSRQKLGPDLHTILANLPGDLFGIYSRFLRPIHPRDFIHVARFLRWLLYAW”, the “transcriptional activation domain activity” value is reported as 69500.

In the case of “DEPFKCTQSRCSIILPRDLMAVHFSYRRRTLKLIRSCPITKCSFRIRLFRPQS”, the “transcriptional activation domain activity” value is reported as 69700.

“DEPTTDEKKVEETAVAVANLSVEGKKDEKKEEATLSDDKKTEAATEAVAAAPV” was tested, and the “transcriptional activation domain activity” value was 10100.

In the case of “DERRLVWPSRLTFMKVVFLLNRYVPFAGSFGMMYVLTLVNPVTQSDFCKHGFL”, the “transcriptional activation domain activity” value is reported as 54900.

For “DESINGSEMPDFSLDLVSNDRQTGLEALDYDIHNYFPQHSERLTAEKIDTSAC”, the “transcriptional activation domain activity” value was 76700.

For “DESPDADATKREKKKKKQKKRKVLQKEEEEEAEAARDKRERKKRKKSKSDIRR”, the “transcriptional activation domain activity” value was 39200.

For “DETAPATEEASKEGEAAEEAAPAAEAEETKTEEAPNKEEGTKRRSASRKRVSI”, the “transcriptional activation domain activity” value was 37200.

“DETLAYIARRHNYTGKSLILPPTEITLRFFAHVARVMELSMADLLIALVYVRR” was tested, and the “transcriptional activation domain activity” value was 50100.

In the case of “DETNIHFDSMWCNDEYMKLKDIVDISTPFLPNNSQIFSLQESEYPNPSASTRG”, the “transcriptional activation domain activity” value is reported as 136000.

With “DEVLKPLWLGIRLHRGKGLAAFLKAIGFIIPLMDPNTLTVILIREFQTSDEEM” the “transcriptional activation domain activity” value was 15100.

For “DEVMKIMPVQKQTRAGQRTRFKAFVVIGDSEGHVGLGVKCAKEVATAIRGAII”, the “transcriptional activation domain activity” value was 59300.

With “DEVTDWFGASEDIGLEFVEPWTELIEQRYMQCGDGDNNNFENLYNLFVNSNNI” the “transcriptional activation domain activity” value was 137000.

With “DEYGNAKIRDLRLKPVQTISDSQTVDEAVELMRDKGYDQVPVTSSTGRRLVGM” the “transcriptional activation domain activity” value was 73300.

“DFDVNEFDPQVLFSTGTRTVEFMDDQNQPSSASAFLSTARPNHYSTHTPTTDV” was tested, and the “transcriptional activation domain activity” value was 75300.

In the case of “DFFLGERDLLQETVSEEWLQFFDDGDLDQILDFLIFFKNPESLHPPSSLVDFI”, the “transcriptional activation domain activity” value is reported as 158000.

“DFKHPMEPLACNWEDCDFLGDDTCSIVNHINCQHGINFDIQFANPDSFLPGSI” was tested, and the “transcriptional activation domain activity” value was 141000.

“DFLLSLHGIRTVYLFMFVINSFLHPLRTLIHLWCLIFISVYQHRLFFFFFFFF” was tested, and the “transcriptional activation domain activity” value was 61200.

In the case of “DFTLEQDPDVLDTWFSSGLWPFSILGWPDKTPDLKTFYPATILETGWDILFFW”, the “transcriptional activation domain activity” value is reported as 54800.

For “DFWDYLIVSLVPSLCVFFVRYFMFMVLFIVVGYFIPLLMCYMSYSIIRYPLFH”, the “transcriptional activation domain activity” value was 43400.

“DFWFFLFVYYGFYNLVGLLWITKVFNMYGLNWWPVRLGFPATFTLFNCLSLAC” was tested, and the “transcriptional activation domain activity” value was 65500.

“DGAGAKDDEEDAGRMRTRGNGKRKGKGRAQDEAEAEAERVRAAEAFARRGAAK” was tested, and the “transcriptional activation domain activity” value was 43300.

With “DGCIFFALITFALMLRIATAFCMRGPIHAIFLPWSIVCYYYAGSHLLLNLRWY” the “transcriptional activation domain activity” value was 46300.

For “DGDEEDAKDGRKKKKKKRLPKSPIGNPGEKLGFVILGAQHAREWVATSAALYL”, the “transcriptional activation domain activity” value was 35700.

In the case of “DGDLDEAVYKGFEYKHLGNLAYIGNAAVFDLNGWSIGGGLIFVYLWRSVYFAQ”, the “transcriptional activation domain activity” value is reported as 67800.

“DGEATATPAKPKTPRKRKVKAADSAEEGTGDAEGSPKKKAGGRKKKADVAVKE” was tested, and the “transcriptional activation domain activity” value was 38600.

For “DGEGEDAEDGSKKDAEVAYHSGLGLKFRYPGDPKKLREASKLKLWTAYLKDHG”, the “transcriptional activation domain activity” value was 55100.

For “DGGDGDDGSGGEVERAGKSGRAKREGKRGAEEEEEERGDGRAARKTAEKRKKR”, the “transcriptional activation domain activity” value was under 6570.

In the case of “DGGEAGEGGTEGAGGGAGGEEGQQGKRPEEGKRKERHRPAEEHGKEKNHGRGE”, the “transcriptional activation domain activity” value is reported as 30700.

For “DGGGRDSEKRGKGKLITRKSHRKSRLGCGNCKQRRIKCDEKRPHCTNCQKRDI”, the “transcriptional activation domain activity” value was 37600.

With “DGHFGSDFGWVWPFSFSLFCFLFCILHFLVYCTHNVLLWKQLSLNFLFCIFHG” the “transcriptional activation domain activity” value was 54100.

In the case of “DGKTFDQLLRLKRLLVMHKGNLQSMWCVALMLELWHTKWTELSRLIQQHWGTG”, the “transcriptional activation domain activity” value is reported as 74200.

“DGKTRRSKVRPRRGAPTGAAGSPAAAGSSKSDTEANSDKGAAGKKRKPRPARK” was tested, and the “transcriptional activation domain activity” value was 37100.

“DGKWCLRFVPRGQRWLLAITRDFTDTAMMSVAARMVWHPIAYTVCLLPVTIAR” was tested, and the “transcriptional activation domain activity” value was 55000.

With “DGNAGQTAGNAGNGRQNGNGRQGGNGGAGQQGKPRPNGQKGQQGQRGQGAGAG” the “transcriptional activation domain activity” value was 20500.

“DGNNSKPLSPGWTDQTAYNAFGITTGMFNTTTMDDVYNYLFDDEDTPPNPKKE” was tested, and the “transcriptional activation domain activity” value was 61500.

With “DGSIMEINGIPLSMLGETGSVKFQSLFANTSNSNDYNNNRTLLDASNDISIPS” the “transcriptional activation domain activity” value was 61900.

For “DGSNGIAQLFGVVFFLFFFLHIYYICWALGLVGFVSGRRGNIVWFVLLCLFLS”, the “transcriptional activation domain activity” value was 63800.

In the case of “DGVKGWAVGVVVAGPFMAGLIKLIRWAGDSFVAYVVVFLFVFQLVAMTLYPTL”, the “transcriptional activation domain activity” value is reported as 19000.

For “DGVTNTPVELGVAKEGGNLEVVNSRTALVVSKHWILLIGLLGRYGMRKDKGVL”, the “transcriptional activation domain activity” value was 49400.

For “DGWGDGGLRAGALEEVQRRAEEMRGRLRLDEEARLYFSRSGNRLVRVVIILVG”, the “transcriptional activation domain activity” value was 7180.

“DGYRNDNRGRNRRGNGRSRSPRGGKDSRNGTPPLTEDERDKRTIFVQQLAARL” was tested, and the “transcriptional activation domain activity” value was 57100.

In the case of “DHFDAPEPWSMFWYDPALDGTWWDQLPLDHFFPSELGAWASARSSWTDLTGSY”, the “transcriptional activation domain activity” value is reported as 155000.

In the case of “DHLLKSLYMLIHTTLKCIKNLEFLGFYLFNSGFSSVFDECVFPYIRTLRCHQP”, the “transcriptional activation domain activity” value is reported as 65000.

For “DHSDKIDKKRKDEDDSKRSKSDRKSKRDEERFSDSDKGARLDKDHSKSSRSKS”, the “transcriptional activation domain activity” value was 43500.

In the case of “DIDEQRLQLYGVQIQIFLFVVMLYIFGCNLVIASKMVVLQPRNMVSWCCLIPS”, the “transcriptional activation domain activity” value is reported as 46800.
